Target: human KDR (VEGFR-2) expressed on porcine aortic endothelial cells (PAE/KDR) (human, UniProt P35968 20-1356)
Assay: radioligand binding

Sequence of human KDR (VEGFR-2) expressed on porcine aortic endothelial cells (PAE/KDR) (P35968 20-1356): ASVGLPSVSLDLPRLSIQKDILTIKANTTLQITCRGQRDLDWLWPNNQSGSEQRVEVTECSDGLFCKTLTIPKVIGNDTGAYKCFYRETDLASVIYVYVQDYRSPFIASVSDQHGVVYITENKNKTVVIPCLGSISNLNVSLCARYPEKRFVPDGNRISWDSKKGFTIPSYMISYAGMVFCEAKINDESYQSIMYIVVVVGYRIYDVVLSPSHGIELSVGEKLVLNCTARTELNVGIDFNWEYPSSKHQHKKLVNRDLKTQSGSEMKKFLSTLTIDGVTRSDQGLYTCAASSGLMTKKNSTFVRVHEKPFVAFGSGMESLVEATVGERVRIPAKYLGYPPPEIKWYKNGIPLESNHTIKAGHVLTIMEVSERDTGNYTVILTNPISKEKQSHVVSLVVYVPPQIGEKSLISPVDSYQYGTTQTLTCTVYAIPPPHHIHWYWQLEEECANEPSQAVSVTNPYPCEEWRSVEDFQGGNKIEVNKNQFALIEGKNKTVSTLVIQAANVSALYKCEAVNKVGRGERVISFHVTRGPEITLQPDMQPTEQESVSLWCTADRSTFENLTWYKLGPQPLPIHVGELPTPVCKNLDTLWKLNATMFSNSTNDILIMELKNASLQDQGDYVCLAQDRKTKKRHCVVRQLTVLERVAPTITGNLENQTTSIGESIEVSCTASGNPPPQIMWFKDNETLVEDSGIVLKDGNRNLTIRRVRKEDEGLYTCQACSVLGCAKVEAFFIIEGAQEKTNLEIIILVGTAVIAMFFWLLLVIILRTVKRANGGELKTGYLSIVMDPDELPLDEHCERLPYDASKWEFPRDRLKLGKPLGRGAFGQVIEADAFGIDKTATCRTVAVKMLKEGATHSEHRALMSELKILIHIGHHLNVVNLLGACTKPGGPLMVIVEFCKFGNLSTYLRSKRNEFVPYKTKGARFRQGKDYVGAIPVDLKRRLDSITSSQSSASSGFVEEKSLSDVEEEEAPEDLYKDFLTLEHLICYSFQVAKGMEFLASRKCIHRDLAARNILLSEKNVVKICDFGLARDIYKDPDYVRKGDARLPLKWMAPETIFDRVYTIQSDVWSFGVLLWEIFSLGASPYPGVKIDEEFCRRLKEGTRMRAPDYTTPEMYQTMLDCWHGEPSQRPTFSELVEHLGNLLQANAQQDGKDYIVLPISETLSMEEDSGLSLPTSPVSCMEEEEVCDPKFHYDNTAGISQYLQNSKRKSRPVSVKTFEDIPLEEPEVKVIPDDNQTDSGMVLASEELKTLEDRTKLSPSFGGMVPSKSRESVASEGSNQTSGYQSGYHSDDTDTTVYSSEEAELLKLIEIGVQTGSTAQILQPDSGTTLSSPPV

IC50: 1.5 nM
B1: NOTA-K3-VEGF121 (ligand)
chain: KKKAPMAEGGGQNHHEVVKFMDVYQRSYCHPIETLVDIFQEYPDEIEYIFKPSCVPLMRCGGCCNDEGLECVPTEESNITMQIMRIKPHQGQHIGEMSFLQHNKCECRPKKDRARQEKCDKPRR
modifications: NOTA (from p-SCN-Bn-NOTA) on lysine residues, estimated 1~2 NOTA residues in each NOTA-K3-VEGF121; positions not determined
